What was measured:
[1] = tested on: T1, phiC31 integrase wild-type (Phage phiC31); assay: cell_activity; settings: human 293 cells, attB plasmid integration into genome, G418 selection
T1 sequence: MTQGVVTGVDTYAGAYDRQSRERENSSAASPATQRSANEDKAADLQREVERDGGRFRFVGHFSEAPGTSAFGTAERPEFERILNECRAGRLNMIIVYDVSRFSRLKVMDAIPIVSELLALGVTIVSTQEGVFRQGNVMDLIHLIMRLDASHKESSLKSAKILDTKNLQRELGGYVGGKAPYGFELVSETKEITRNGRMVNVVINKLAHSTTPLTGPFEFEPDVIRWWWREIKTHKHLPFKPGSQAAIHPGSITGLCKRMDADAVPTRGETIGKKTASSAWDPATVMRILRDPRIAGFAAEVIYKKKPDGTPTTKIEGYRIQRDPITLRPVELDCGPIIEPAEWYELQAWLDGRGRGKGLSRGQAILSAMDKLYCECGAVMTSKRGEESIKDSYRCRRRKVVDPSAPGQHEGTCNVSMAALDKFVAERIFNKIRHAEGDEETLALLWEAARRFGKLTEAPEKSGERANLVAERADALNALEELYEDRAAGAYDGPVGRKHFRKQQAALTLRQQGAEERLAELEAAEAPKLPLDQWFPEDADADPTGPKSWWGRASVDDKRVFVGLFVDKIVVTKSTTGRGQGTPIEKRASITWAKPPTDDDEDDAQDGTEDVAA

[2] = tested on: T2, phiC31 integrase mutant 1C1 (Phage phiC31); assay: cell_activity; settings: human 293 cells, attB plasmid integration into genome; integration at psiA shown by PCR
T2 sequence: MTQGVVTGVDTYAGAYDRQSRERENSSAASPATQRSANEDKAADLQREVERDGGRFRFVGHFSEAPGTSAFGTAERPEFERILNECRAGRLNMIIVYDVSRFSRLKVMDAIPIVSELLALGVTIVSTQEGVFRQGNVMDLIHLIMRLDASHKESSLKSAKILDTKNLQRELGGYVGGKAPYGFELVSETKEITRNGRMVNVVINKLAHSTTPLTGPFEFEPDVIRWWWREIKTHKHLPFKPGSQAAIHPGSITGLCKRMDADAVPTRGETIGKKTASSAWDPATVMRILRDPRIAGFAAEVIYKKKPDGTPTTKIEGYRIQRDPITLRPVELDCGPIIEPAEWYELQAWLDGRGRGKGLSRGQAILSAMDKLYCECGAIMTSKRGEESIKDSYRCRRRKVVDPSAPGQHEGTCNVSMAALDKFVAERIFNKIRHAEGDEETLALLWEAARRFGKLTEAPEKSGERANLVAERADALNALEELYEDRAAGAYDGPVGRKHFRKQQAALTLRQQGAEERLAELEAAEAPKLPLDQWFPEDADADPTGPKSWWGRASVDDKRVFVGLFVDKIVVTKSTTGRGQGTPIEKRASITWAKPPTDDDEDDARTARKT

Question: For “CGATGTAGGTCACGGTCTCGAAGCCGCGGTGCGGGTGCCAGGGCGTGCCCTTGGGCTCCCCGGGCGCGTACTCCACCTCACCCATCTGGTCCATCATGATGAACGGGTCGAGGTGGCGGTAGTTGATCCCGGCGAACGCGCGGCGCACCGGGAAGCCCTCGCCCTCGAAACCGCTGGGCGCGGTGGTCACGGTGAGCACGGGACGTGCGACGGCGTCGGCGGGTGCGGATACGCGGGGCAGCGTCAGCGGGTTCTCGACGGTCACGGCGGGCATGTCGA (double strand) [phiC31 attB (full length)]”, which activity (fold colonies over background) [1] is on record?
Answer: Its activity (fold colonies over background) is greater than 10.

Question: And the integration activity (fold colonies vs wild-type integrase) [2]?
Answer: The integration activity (fold colonies vs wild-type integrase) was 2.

Reference: patent US20020094516
